Measurements: article doi:10.1101/585943 (bioRxiv, 2019)

Biological target: the molecule itself
Assay: cryo-EM structure

B1: SgrAI, type II restriction endonuclease, his-tagged wild type (enzyme, Streptomyces griseus)
chain: PFTYSIEATRNLATTERCIQDIRNAPVRNRSTQFQLAQQNMLAYTFGEVIPGFASAGINGMNYRDVIGRPVENAVTEGTHFFRDDFRVDSNAKAKVAGDIFEIVSSAVMWNCAARWNSLMVGEGWRSQPRYSRPTLSPSPRRQVAVLNLPRSFDWVSLLVPESQEVIEEFRAGLRKDGLGLPTSTPDLAVVVLPEEFQNDEMWREEIAGLTRPNQILLSGAYQRLQGRVQPGEISLAVAFKRSLRSDRLYQPLYEANVMQLLLEGKLGAPKVEFEVHTLAPEGTNAFVTYEAASLYGLAEGRSAVHRAIRELYVPPTAADLARRFFAFLNERMELVNG
- binding result: binds
